This experiment concerns the target tdPCP-GFP-VPR (PP7 (from the protein's name) | not stated). Briefly: fluorescence intensity at the reporter gene array in cells. On the technique in general: In a reporter assay the amount or activity of a reporter protein is the signal.

tdPCP-GFP-VPR returned a fold signal at the reporter array against tdPCP-GFP-VP16 of 1.9 fold.
